In assay [1] the target is T1, FLAG-tagged 88C receptor (human, UniProt P51681 1-352).
T1 sequence: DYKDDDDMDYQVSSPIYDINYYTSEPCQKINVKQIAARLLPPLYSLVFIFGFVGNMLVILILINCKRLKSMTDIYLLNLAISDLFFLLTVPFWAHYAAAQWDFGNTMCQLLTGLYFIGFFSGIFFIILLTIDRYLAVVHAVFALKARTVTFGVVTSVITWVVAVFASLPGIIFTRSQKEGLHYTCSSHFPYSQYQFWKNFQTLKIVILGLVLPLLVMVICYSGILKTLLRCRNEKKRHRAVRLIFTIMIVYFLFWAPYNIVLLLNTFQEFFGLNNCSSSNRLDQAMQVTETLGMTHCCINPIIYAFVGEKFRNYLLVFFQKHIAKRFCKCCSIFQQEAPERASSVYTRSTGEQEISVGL
The assay can be described thus: competition of unlabelled ligand with 1.5 nM 125I-MIP-1β on HEK-293 cells expressing FLAG-tagged 88C. An excerpt:
(§1) Another assay for receptor interaction with chemokines was a modification of the binding assay described by Ernst et al. *J. Immunol.* 152:3541–3549 (1994). MIP-1β as labeled using the Bolton and Hunter reagent (di-iodide, NEN, Wilmington, Del.), according to the manufacturer's instructions. Unconjugated iodide was separated from labeled protein by elution using a PD-10 column (Pharmacia) equilibrated with PBS and BSA (1% w/v). The specific activity was typically 2200 Ci/mmole. Equilibrium binding was performed by adding ^125I-labeled ligand with or without a 100-fold excess of unlabeled ligand, to 5×10^5 HEK-293 cells transfected with 88C tagged with the FLAG epitope in polypropylene tubes in a total volume of 300 µl (50 mM HEPES pH 7.4, 1 mM CaCl_2, MgCl_2, 0.5% BSA) and incubating for 90 minutes at 27° C. with shaking at 150 rpm. […] After washing, the filters were removed and bound ligand was quantitated by counting gamma emissions. Ligand binding by competition with unlabeled ligand was determined by incubation of 5×10^5 transfected cells (as above) with 1.5 nM of radiolabeled ligand and the indicated concentrations of unlabeled ligand. The samples were collected, washed and counted as above. The data was analyzed using the curve-fitting program Prism (GraphPad Inc., San Diego, Calif.) and the iterative non-linear regression program, LIGAND (PM220).

Assay [2] deals with T1, FLAG-tagged 88C receptor. The assay can be described thus: equilibrium binding of 125I-MIP-1β to HEK-293 cells expressing FLAG-tagged 88C, Scatchard analysis.
Description: as §1

Assay [3] has as its target T1, FLAG-tagged 88C receptor. Put plainly: cell-based or functional assay.

Results on one molecule are retold here after patent US6797811.

A word on the IC50: it is the concentration that gives 50% inhibition. Low readings indicate higher potency, high ones lower potency. The Kd is the constant that tells how readily two partners part at equilibrium.

B1: MIP-1β (ligand, UniProt P13236 24-92, looked up)
chain: APMGSDPPTACCFSYTARKLPRNFVVDYYETSSLCSQPAVVFQTKRSKQVCADPSESWVQEYVYDLELN
notes: also called MIP-1beta; radiolabeled MIP-1β
In the case of B1, the IC50 in assay [1] came out at 7.4 nM. For the same molecule, the Kd in assay [2] stood at 1.6 nM. The “EC50 of inositol phosphate formation (phospholipase C assay), COS-7 cells co-transfected with Gqi5” value in assay [3] came out at 6 nM.
